According to US20240285759A1 (published 2024):
One block for each binder: values may come before it.

Assays:
Assay in all cases: cytokine release
[1] = biological target: T1, NRAS Q61R (RAS Q61R; the filing also names KRAS and HRAS comprising this peptide) peptide on HLA-A*01:01 (human)
T1 peptide: ILDTAGREEY

[2] = biological target: T2, NRAS Q61K (RAS Q61K; the filing also names KRAS and HRAS comprising this peptide) peptide on HLA-A*01:01 (human)
T2 peptide: ILDTAGKEEY

[3] = biological target: T3, NRAS wild type (RAS wild type) peptide on HLA-A*01:01 (human)
T3 peptide: ILDTAGQEEY

binding result [1]: recognises
binding result [2]: recognises
binding result [3]: no recognition
B1: TCR1 (TCR, V domains shown)
Valpha: GQQLNQSPQSMFIQEGEDVSMNCTSSSIFNTWLWYKQEPGEGPVLLIALYKAGELTSNGRLTAQFGITRKDSFLNISASIPSDVGIYFCAGRDDAGNMLTFGGGTRLMVKP
Vbeta: GAVVSQHPSRVICKSGTSVKIECRSLDFQATTMFWYRQFPKKSLMLMATSNEGSKATYEQGVEKDKFLINHASLTLSTLTVTSAHPEDSSFYICSASVRMNTEAFFGQGTRLTVV

binding result [1]: recognises
binding result [3]: no recognition
B2: TCR2 (TCR, V domains shown)
Valpha: GESVGLHLPTLSVQEGDNSIINCAYSNSASDYFIWYKQESGKGPQFIIDIRSNMDKRQGQRVTVLLNKTVKHLSLQIAATQPGDSAVYFCAENIRLTGANNLFFGTGTRLTVIP
Vbeta: GAVVSQHPSWVICKSGTSVKIECRSLDFQATTMFWYRQFPKQSLMLMATSNEGSKATYEQGVEKDKFLINHASLTLSTLTVTSAHPEDSSFYICSARLLSYEQYFGPGTRLTVT
